Test [1] has as its target E. coli F-ATPase subunit b (cysteine-free F-ATPase) (E. coli) (UniProt P0ABA0). Nature of the test: cryo-EM structure; purified cysteine-free E. coli F-ATPase in digitonin at 3.58 μM, no nucleotides added; three rotational states at 6.9, 7.8 and 8.5 Å; models built by docking crystal, NMR and homology models, side chains pruned to Cα.
Test [2] has as its target E. coli F-ATPase subunit c (cysteine-free F-ATPase) (E. coli) (UniProt P68699). Described as above.

For “E. coli F-ATPase subunit b (cysteine-free F-ATPase) (from UniProt P0ABA0 2-156) (natural protein)”, in test [1], the stoichiometry N turned out to be 2.
In the case of “E. coli F-ATPase subunit c (cysteine-free F-ATPase) (from UniProt P68699 1-79) (natural protein)”, in test [2], the stoichiometry N amounted to 10.

The values above are taken from paper PMC5214741.
